T1: E-selectin (Homo sapiens, UniProt P16581)
T1 construct: stably transfected with full-length cDNA encoding human E-selectin; expressed in transfected cells
T1 sequence (P16581 22-610): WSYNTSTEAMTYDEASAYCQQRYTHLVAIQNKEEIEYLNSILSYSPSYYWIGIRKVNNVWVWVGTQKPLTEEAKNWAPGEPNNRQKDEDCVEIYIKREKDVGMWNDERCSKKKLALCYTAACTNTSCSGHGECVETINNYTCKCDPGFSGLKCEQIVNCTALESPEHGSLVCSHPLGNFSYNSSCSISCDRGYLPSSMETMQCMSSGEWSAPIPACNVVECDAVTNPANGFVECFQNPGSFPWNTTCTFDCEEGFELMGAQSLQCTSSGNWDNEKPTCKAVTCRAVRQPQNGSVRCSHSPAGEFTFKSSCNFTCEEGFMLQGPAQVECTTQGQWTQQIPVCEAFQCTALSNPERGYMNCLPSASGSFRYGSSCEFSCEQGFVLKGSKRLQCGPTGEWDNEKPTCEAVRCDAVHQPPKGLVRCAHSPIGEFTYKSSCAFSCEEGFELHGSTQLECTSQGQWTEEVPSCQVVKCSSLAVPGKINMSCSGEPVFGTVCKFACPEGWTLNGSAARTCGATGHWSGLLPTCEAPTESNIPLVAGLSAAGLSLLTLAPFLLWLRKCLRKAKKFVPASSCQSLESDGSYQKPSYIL

T2: L-selectin (Rattus norvegicus, UniProt P30836)
T2 construct: L-selectin naturally expressed on leukocytes; endogenous in cells; host or cells: lymphocytes (rat thoracic duct lymphocytes; human PBMC also prepared)
T2 sequence (P30836 39-372): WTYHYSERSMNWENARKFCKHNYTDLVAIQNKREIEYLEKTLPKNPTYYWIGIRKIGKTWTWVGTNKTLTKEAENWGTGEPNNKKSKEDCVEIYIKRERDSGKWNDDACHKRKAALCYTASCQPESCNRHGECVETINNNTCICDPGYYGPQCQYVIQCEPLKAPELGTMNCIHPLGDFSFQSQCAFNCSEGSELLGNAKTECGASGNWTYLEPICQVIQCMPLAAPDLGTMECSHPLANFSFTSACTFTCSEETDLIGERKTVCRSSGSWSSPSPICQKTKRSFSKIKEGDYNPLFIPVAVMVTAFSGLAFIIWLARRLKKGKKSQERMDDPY

T3: P-selectin (Homo sapiens, UniProt P16109)
T3 construct: CHO-P (CHO stably transfected with human cDNA encoding full length P-selectin); expressed in transfected cells
T3 sequence (P16109 42-830): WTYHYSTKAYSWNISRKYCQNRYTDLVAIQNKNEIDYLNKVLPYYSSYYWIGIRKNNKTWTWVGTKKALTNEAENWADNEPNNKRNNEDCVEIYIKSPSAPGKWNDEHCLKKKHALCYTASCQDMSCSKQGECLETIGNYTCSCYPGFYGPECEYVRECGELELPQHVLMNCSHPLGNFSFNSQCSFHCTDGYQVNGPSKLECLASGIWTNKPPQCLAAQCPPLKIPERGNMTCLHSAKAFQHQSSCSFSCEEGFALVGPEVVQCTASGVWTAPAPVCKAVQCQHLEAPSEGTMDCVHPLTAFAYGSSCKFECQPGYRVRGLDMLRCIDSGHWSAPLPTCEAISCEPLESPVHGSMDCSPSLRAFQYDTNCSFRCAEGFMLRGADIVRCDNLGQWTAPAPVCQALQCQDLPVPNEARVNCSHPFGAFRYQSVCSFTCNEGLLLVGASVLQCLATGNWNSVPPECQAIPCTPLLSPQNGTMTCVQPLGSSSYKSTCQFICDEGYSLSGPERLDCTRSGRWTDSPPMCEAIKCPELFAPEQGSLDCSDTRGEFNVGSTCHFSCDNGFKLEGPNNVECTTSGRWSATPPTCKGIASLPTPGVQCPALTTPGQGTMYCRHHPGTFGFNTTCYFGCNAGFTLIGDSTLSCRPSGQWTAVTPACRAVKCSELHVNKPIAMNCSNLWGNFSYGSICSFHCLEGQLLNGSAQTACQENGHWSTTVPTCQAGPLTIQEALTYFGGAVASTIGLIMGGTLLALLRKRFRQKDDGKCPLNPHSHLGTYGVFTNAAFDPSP


Key:
[1] = target: T1, E-selectin; assay: Blot rolling assay with CHO-E cells; format: cell-based; settings: immunoprecipitated CD44 on Western blot; 3.8 dynes/cm^2
Protocol: The blot rolling assay was performed as previously described (Dimitroff et al., 2000). Briefly, CHO-E, CHO—P or CHO-Mock transfectants were isolated as described above, washed twice in HBSS and suspended at 10^7/ml in HBSS/10 mM HEPES/2mMCaCl2 (H/H/Ca++)/10% glycerol. Western blots of HPC membrane preparations stained with HECA-452 were rendered transparent by incubating them in H/H/Ca++/10% glycerol. The blots were then placed in the parallel-plate flow chamber, and CHO transfectants (2×10^6/ml) were perfused into the chamber. After allowing the cells to come in contact with the blotting membrane, the flow rate was adjusted to exert a shear stress of 3.8 dynes/cm^2. The viscosity of 10% glycerol adhesion assay medium was considered in the calculation of shear stress values. The number of cells rolling on and between each immunostained banding region was quantified under 100× magnification within each field of view on the video monitor using molecular weight markers (Kaleidoscope Molecular Weight Markers, Bio-Rad Lab.; See Blue® from Novex, Inc.) as guides to help align and visualize the apparent molecular weights of the proteins of interest. A minimum of 3 experiments was performed and results were expressed as the mean±SD of cell rolling/field at 100× magnification.

[2] = tested on: L-selectin; assay: Blot rolling assay with L-selectin-expressing lymphocytes; format: cell-based; settings: 2.3 dynes/cm^2
Protocol: L-selectin-expressing lymphocytes were isolated as previously described (Oxley, S. M. & Sackstein, R. (1994). Blood. 84:3299-3306; Sackstein, R., Fu, L. and Allen, K. L. (1997) Blood. 89:2773-2781), washed twice in HBSS and suspended at 2×10^7/ml in HBSS/10 mM HEPES/2mMCaCl2 (H/H/Ca^++)/10% glycerol. Cell lysate material is separated by SDS-PAGE and transferred to PVDF under standard blotting conditions. Western blots of KG1a membrane preparations stained with HECA-452, A3D8 or Hermes-1 were rendered transparent by incubating them in H/H/Ca^++/10% glycerol. To study L-selectin-mediated adhesive interactions, the blots were placed in the parallel plate flow chamber and lymphocytes were perfused into the chamber at a shear force of 2.3 dynes/cm^2 and cellular adhesive interactions are observed by video microscopy and analyzed in real time.
The number of lymphocytes rolling on and between each immunostained banding region was quantified from five independent fields under 200× magnification on the video monitor using molecular weight markers as guides to help align and visualize the proteins of interest. A minimum of 3 experiments were performed, and results were expressed as the mean of cell rolling/field.

[3] = target: T1, E-selectin; assay: CHO-E cell rolling on immobilized immunoprecipitates, parallel-plate flow chamber; format: cell-based; settings: for E-selectin ligand activity (CHO-E cell rolling): immunoprecipitates on plastic, 2.8 dynes/cm^2
Protocol: CD44 was immunoprecipitated from untreated cell lysates or from cell lysates treated with N-glycosidase-F (0.8 U/ml) Vibrio cholerae neuraminidase (0.1 U/ml) or a-L-fucosidase (80 mU/ml), and PSGL-1 was immunoprecipitated from untreated cell lysates as previously described (Sackstein and Dimitroff, 2000; Dimitroff et al., 2000).
CD44 or PSGL-1 immunoprecipitates were spotted onto plastic petri dishes, fixed in 3% glutaraldehyde and incubated in 0.2M lysine to block unreactive aldehyde groups, and then non-specific binding was prevented by incubating in 100% FBS for 1 hr at RT. Fixed spots were also treated with Vibrio cholerae neuraminidase (0.1 U/ml assay medium), which was overlaid onto the spots and incubated at 37° C. for 1 hr. […] The flow rate was then increased to achieve a shear stress of 2.8 dynes/cm^2. The frequency of cells rolling per 100× magnification field was determined, and data were expressed as the mean±standard deviation of 8 fields visualized from a minimum of 3 experiments.

[4] = target: T2, L-selectin; assay: Stamper-Woodruff assay, lymphocyte adherence to immunoprecipitated CD44 and PSGL-1; format: cell-based; settings: 0.75 μg/spot (PSGL-1 1 μg/spot); 80 rpm, 4° C.; 100× mag.
Protocol: These protein spots were then fixed in 3% glutaraldehyde, unreactive aldehyde groups were blocked in 0.2M lysine and slides were kept in RPMI-1640 without NaBicarbonate/2% FBS until ready for testing. Lymphocytes (10^7/ml RPMI-1640 without NaBicarbonate/5% FBS) were overlayed onto these fixed immunoprecipitates and incubated on an orbital shaker at 80 rpm for 30 min. at 4° C. The number of adherent lymphocytes was quantified by light microscopy using an ocular grid under 100× magnification (a minimum of 5 fields/slide, 2 slides/experiment, and 3 separate experiments). Data were presented as the mean number of bound lymphocytes±standard deviation. KG1a CD34 and L-selectin control immunoprecipitates were also tested in this manner. To verify the dependence for sialic acid, glutaraldehyde-fixed spots were treated with Vibrio cholerae neuraminidase (0.1 U/ml RPMI-1640 without NaBicarbonate/2% FBS for lhr at 37° C.).
Immunoaffinity purified material (0.75-3 μg/spot) was spotted onto glass slides for analyses in the Stamper-Woodruff assay (See below for assay description). For autoradiographic analysis of immunoprecipitated [^35S]-methionine-radiolabeled CD44 and PSGL-1, immunoprecipitates were spotted onto glass slides, allowed to dry and exposed Kodak BioMax-MR film for 12 h at −80° C. Densitometric analysis (optical density) of the autoradiograms was performed with a Hewlett-Packard Scanj et 5200C scanner and NIH Image processing and analysis program.

[5] = tested on: CD44; assay: [35S]-SO4 metabolic labeling of CD44 in KG1a cells; format: cell-based, human; settings: 10 mM sodium chlorate for 24 hr after bromelain
Source text: To determine if CD44 on KG1a cells is sulfated, KG1a cell cultures were metabolically labeled with [^35S]-SO4. CD44 immunoprecipitated from these cells was indeed sulfated (FIG. 11 A). To test whether sulfation was critical for L-selectin ligand activity of CD44, KG1a cells were pretreated with 0.1% bromelain, a protease that eliminates all KG1a HCLL activity (Sackstein, R. & Dimitroff, C. J. (2000). Blood. 96, 2765-2774) and also removes CD44 from the cell surface (Hale, L. P. & Haynes, B. F. (1992). J. Immunol 149:3809-3816). Following bromelain digestion of KG1a, re-expression of HCELL requires de novo protein synthesis, and protein synthesized in the presence of chlorate (a metabolic inhibitor of both protein and carbohydrate sulfation) is non-sulfated (Sackstein, R., Fu, L. and Allen, K. L. (1997). Blood. 89:2773-2781). Therefore, KG1a was treated with bromelain and confirmed removal of CD44 by flow cytometry. The KG1a cells were cultured in the absence or presence of 10 mM sodium chlorate for 24 hr and metabolically radiolabeled the cells for the last 8 hr of incubation with [^35S]-SO4 in sulfate-deficient CRCM-30 medium. […] This effect of chlorate was specific for sulfate incorporation and not a general inhibition of CD44 protein synthesis, as [^35S]-methionine/cysteine metabolic radioloabeling of CD44 was identical in chlorate- and non-chlorate-treated cell populations.

[6] = target: T3, P-selectin; assay: CHO-P cell rolling on immobilized immunoprecipitates, parallel-plate flow chamber; format: cell-based; settings: 2.8 dynes/cm^2
Protocol: CD44 or PSGL-1 immunoprecipitates were spotted onto plastic petri dishes, fixed in 3% glutaraldehyde and incubated in 0.2M lysine to block unreactive aldehyde groups, and then non-specific binding was prevented by incubating in 100% FBS for 1 hr at RT. Fixed spots were also treated with Vibrio cholerae neuraminidase (0.1 U/ml assay medium), which was overlaid onto the spots and incubated at 37° C. for 1 hr. The protein dishes were placed in the parallel-plate flow chamber and CHO-E, CHO-P (CHO stably transfected with human cDNA encoding full length P-selectin), CHO-P cells treated with function blocking anti-P-selectin moAb (clone AK-4; Pharmingen) (10 μg/ml), CHO-E cells treated with function blocking anti-E-selectin Abs (10 μg/ml) (clone 68-5H1 1) or Mock transfectants were perfused into the chamber (2×10^6/ml H/H/Ca++) at a flow rate of 0.2 ml/min until the cells were in contact with the substrate. The flow rate was then increased to achieve a shear stress of 2.8 dynes/cm^2. The frequency of cells rolling per 100× magnification field was determined, and data were expressed as the mean±standard deviation of 8 fields visualized from a minimum of 3 experiments.

Molecule | E-selectin ligand activity (CHO-E cell rolling) in blot rolling assay [1] | L-selectin ligand activity (lymphocyte tethering and rolling) in blot rolling assay [2] | E-selectin ligand activity (CHO-E cell rolling) [3] | Mean Number of Bound Lymphocytes [4] | incorporation of [35S]-SO4 into immunoprecipitable CD44 (Hermes-1) [5] | P-selectin ligand activity (CHO-P cell rolling) [6] | CHO-E cell rolling ([3]; lower shear stress of 0.6 dynes/cm^2)
KG1a N-glycosidase-F CD44: CD44 immunoprecipitated from N-glycosidase-F-treated KG1a membrane protein | completely abrogated CHO-E cell rolling | abolished all L-selectin-mediated lymphocyte tethering and rolling | abrogated CHO-E cell rolling | 30.7 | – | – | –
[O-][Cl+2]([O-])O [chlorate, sodium chlorate] | – | – | – | – | completely inhibited | – | –
KG1a PSGL-1: PSGL-1 immunoaffinity purified (PL-2) from KG1a cells (protein) QATEYEYLDYDFLPETEPPEMLRNSTDTTPLTGPGTPESTTVEPAARRSTGLDAGGAVTELTTELANMGNLSTDSAAMEIQTTQPAATEAQTTQPVPTEAQTTPLAATEAQTTRLTATEAQTTPLAATEAQTTPPAATEAQTTQPTGLEAQTTAPAAMEAQTTAPAAMEAQTTPPAAMEAQTTQTTAMEAQTTAPEATEAQTTQPTATEAQTTPLAAMEALSTEPSATEALSMEPTTKRGLFIPFSVSSVTHKGIPMAASNLSVNYPVGAPDHISVKQCLLAILILALVATIFFVCTVVLAVRLSRKGHMYPVRNYSPTEMVCISSLLPDGGEGPSATANGGLSKAKSPGLTPEPREDREGDDLTLHSFLP | – | – | significantly lower | 44.8 | – | rolled on KG1a PSGL-1 | equivalent to that of CD44

From patent publication US10370642B2, “Hematopoietic progenitor cell populations having affinity for E-selectin / L-selectin” (priority 2000, dated 2019)
